For two molecules, binding result and Kd results are on record in paper doi:10.1101/2024.04.24.590854 (bioRxiv, 2024).

The assay concerns the target reconstituted XPO1:RanGTP nuclear export receptor complex (human | yeast (ScRan), UniProt O14980 1-1071; P32835 1-179, Q71L). The assay is described as follows: fluorescence polarisation.

For the molecule {5(6)‑carboxyfluorescein}-GLEGDLLEHISLTLSVSGLGA-NH2 [POU4F3 P125L(114-134) peptide], the binding result is on record as “binds”.

In the case of {5(6)‑carboxyfluorescein}-SPLDNMIRRLSLAERAQGPR-NH2 [ETV6 P214L(203-222) peptide], the Kd amounted to 261 nM.

As usually defined, the Kd is the concentration at which binding is half-saturated. Read a high Kd as weaker binding.
